41 sequences from the nanobody polyreactivity screen of Harvey et al. (2022) can be followed below.

The nature of this data set: yeast display, Sf9 membrane polyspecificity reagent, FACS + sequencing; frameworks hold sequencing errors. In outline: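 Galactose-induced (36–48 hours) yeast carrying a synthetic nanobody display library were exposed to 10% biotinylated, detergent-solubilized Sf9 membrane reagent at 4 °C for 1 hour. FACS followed streptavidin microbead enrichment, using low and high (top ~1%) gates for expression (anti-HA) and reagent binding (streptavidin). Colony PCR, MiSeq 2 × 250 sequencing and CDR-length filtering followed. Labels for polyreactivity reflect the gate of origin.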
With “QVQLVESGGGLVQAGGSLRLSCAASGSIFGRNAMGLYRQAPGKERELVAAITDGGNTNYADSVKGRFTISRDNAKNTVYLQMNSLNPEDTAVYYCAARIPGTYGGRYGYDYWGQGTQVTVSS”, the “polyreactivity (PSR sort gate)” value is “low polyreactivity”.
“QVQLVESGGGLVQAGGSLRLSCAASGSIFGRNAMGWYRPAPGKERELVAAISRRGGNTYYADSVKGRFTISRDNAKNTVYLQMNSLKPEDTAVYYCAAEVKTSYSYTHDGYWGQGTQVTVSS”: the “polyreactivity (PSR sort gate)” value was “high polyreactivity”.
In the case of “QVQLVESGGGLVQAGGSLRLSCAASGSIFGRNAMGWYRQAPGKEREIVAAISQRGGRTYYADSVKGRFTISRDNAKNTVYLQMNRLKPEDTAVYYCAATYTRVPNRFYYWGQGTQVTVSS”, the “polyreactivity (PSR sort gate)” value is reported as “high polyreactivity”.
On to “QVQLVESGGGLVQAGGSLRLSCAASGSIFGRNAMGWYRQAPGKERELVAAISGRASSTFYADSVKGRFTISRDNAKNTVYLQMNSLKPEDTAVYYCAARNSYGGPTYEHYYWGQGTQVTVSS”, for which the “polyreactivity (PSR sort gate)” value is on record as “high polyreactivity”.
Regarding “QVQLVESGGGLVQAGGSLRLSCAASGSIFGRYAMGWYRQAPGKERELVAAITYRGGTTYYADSVKGRFTISRDNAKNTVYLQMNSLKPEDTAVYYCAAEGTWYYKYGYFAYYYWGQGTQVTVSS”, the “polyreactivity (PSR sort gate)” value is on record as “low polyreactivity”.
Consider “QVQLVESGGGLVQAGGSLRLSCAASGSIFGRYGMGWYRQAPGKERELVAAITSGTRTNYADSVKGRFTISRDNAKTTVYLQMNSLKPEDTAVYYCNALRLRGNYEYGYWGQGTQVTVSS”, for which the “polyreactivity (PSR sort gate)” value is “low polyreactivity”.
For “QVQLVESGGGLVQAGGSLRLSCAASGSIFGRYVMGWYRQAPGKERELVAAISTSGDSTYYADSVKGRFTISRDNAKNTVYLQMNSLKPEDTAVYYCNARKRTFPSRSIGGDYWGQGTQVTVSS” the value was “high polyreactivity”.
With “QVQLVESGGGLVQAGGSLRLSCAASGSIFGSNAMGWYIQAPGKERELVAAITWSDGSTYYADSVKGRFTISRDNAKNTVYLQMNSLKPEDTAVYYCAADSWWGIYYSGYDYWGQGTQVTVSS”, the “polyreactivity (PSR sort gate)” value is “low polyreactivity”.
For “QVQLVESGGGLVQAGGSLRLSCAASGSIFGSYAMGWYRQAPGKERDLVAAISGSGGRTYYADSVKGRFTISRDNAKNTVYLQMNSLKPEDTAVYYCAAAYPRVTYKYGYYWGQGTQVTVSS” the value was “high polyreactivity”; for “QVQLVESGGGLVQAGGSLRLSCAASGSIFGSYAMGWYRQAPGKERELVAAISSSGGSTYYADSVKGRFTISRVNAKNTVYFQMNSLKPEDTAVYYCNKYVRYGDGYWGQGTQVTVSS”, “high polyreactivity”; for “QVQLVESGGGLVQAGGSLRLSCAASGSIFGSYAMGWYRQAPGKERELVAAISWRGGRTYYADSVKGRFTISRDNAKNTVYLQMNSLKPEDTAVYYCAAERHARSSYEYWGQGTQVTVSS”, “low polyreactivity”.
Turning to “QVQLVESGGGLVQAGGSLRLSCAASGSIFGSYAMGWYRQAPGKERELVAAISYSGGTTYYADSVKGRFTISRDNAKNTVYLQMNSLKPEDTAVYYCNAPVAYQREYDYWGLGTQVTVSS”, the “polyreactivity (PSR sort gate)” value was “low polyreactivity”.
For “QVQLVESGGGLVQAGGSLRLSCAASGSIFGSYAMGWYRQAPGKERELVAGIRSGGSTYYADSVKGRFTISRDNAKNTVYLQMNSLKPEDTAVYYCAGHEEYWGQGTQVTVSS” the value was “low polyreactivity”.
With “QVQLVESGGGLVQAGGSLRLSCAASGSIFGSYAMGWYRQAPGKERELVAVITSSGNTKYADSVKGRFTISRDNAKNTVYLQMNSLKPEDTAVYYCAARFITWCSQYSFRSMDYWGQGTQVTVSS”, the “polyreactivity (PSR sort gate)” value is listed as “high polyreactivity”.
With “QVQLVESGGGLVQAGGSLRLSCAASGSIFGTNAMGWYRQAPGKERELVAAIDGGSTTYYADSVKGRFTISRDNAKNTVYLQMNSLKPEDTAVYYCAADGSRYLNYEGYAGYEYWGQGTQVTVSS”, the “polyreactivity (PSR sort gate)” value is recorded as “low polyreactivity”.
Regarding “QVQLVESGGGLVQAGGSLRLSCAASGSIFGTYAMGGYRQAPGKERELVAAITGNGGRTYYADSVKGRFTISRDNAKNTVYLQMNSLKPEDTAVYYCAKATSRRGFYYWGQGTQVTVSS”, the “polyreactivity (PSR sort gate)” value was “high polyreactivity”.
For “QVQLVESGGGLVQAGGSLRLSCAASGSIFGTYAMGWDRQARGQERALGAAIRWSSGSTYYADSVNGRFTISRDNATNTESLQMNSLKPADTAVYYCNAEYVYYWLGATFGYWGQGTQVTVSS” the value was “high polyreactivity”; for “QVQLVESGGGLVQAGGSLRLSCAASGSIFGTYAMGWYRQAPGKERELVAAITTSAGSTYYADSVKGRFTISRDNAKNTVYLEMNSLKPEDTAVYYCAKYAYTSVHSWYYYWGQGTQVTVSS”, “high polyreactivity”; for “QVQLVESGGGLVQAGGSLRLSCAASGSIFGVNAMGWYRQAPGKERELVASITGGDSTNYADSEKGRFTISRDNAKNTVYLQMNSLKPEDTAVYYCAKDHYYRYEEGDYWGQGTQVTVSS”, “low polyreactivity”.
With “QVQLVESGGGLVQAGGSLRLSCAASGSIFGVNAMGWYRQAPGKERELVATIRQRGTSTYNADSVKGRFTISRDTAKNTVYLQMNSLKPEDTAVYYCAARGGVLKGYYYWGQGTQVTVSS”, the “polyreactivity (PSR sort gate)” value was “high polyreactivity”.
“QVQLVESGGGLVQAGGSLRLSCAASGSIFGVNAMGWYRQAPGKERELVATITWRTGSTYYADSVKGRFTISRDNAKNTVYLQMNSLKPEDTAVYYCAAEDYTEFDYWGQGTQVTVSS”: the “polyreactivity (PSR sort gate)” value is reported as “low polyreactivity”.
For “QVQLVESGGGLVQAGGSLRLSCAASGSIFGVNDMGWYRQAPGKERELVAGISSSGGSTYDADSVMGRFTISRDNAKNTVYLQMNSLKPEDTAVYYCAARKLYRPRGRRVGYWGQGTQVTVSS” the value was “low polyreactivity”; for “QVQLVESGGGLVQAGGSLRLSCAASGSIFGVYAIGWYRQAPGKERELVATISWSAGSTYYADSVKGRFTISRDNAKNTVYLQMNSLKPEDTAVYYCAAGVRWLGLYDLFTFDYWGQGTQVTVSS”, “low polyreactivity”; for “QVQLVESGGGLVQAGGSLRLSCAASGSIFGVYAMGRYIQAPRKERELVASISRGGSTNYADSVKGRFTISRDNAKNTVYLQMKSLKPEDTAVYYCASDGVYQGWTWLYGLRYNYWGQGTQVTVSS”, “low polyreactivity”.
Take “QVQLVESGGGLVQAGGSLRLSCAASGSIFGVYAMGWYRPAPGKERELVAVIRWRGGSTYYADSVKGRFTISRDNAKNTVYLQMNSLKPEDTAVYYCAARRHIVVATYDRRYDYWGQGTQVTVSS”: the “polyreactivity (PSR sort gate)” value was “low polyreactivity”.
As to “QVQLVESGGGLVQAGGSLRLSCAASGSIFGVYAMGWYRQAPGKERELVAAISWSGTSTYYADSVKGRFTISRDNAKNTVYLQMNSLKPEDTAVYYCNADWVLDGYDYDYWGQGTQVTVSS”, the “polyreactivity (PSR sort gate)” value is on record as “low polyreactivity”.
As to “QVQLVESGGGLVQAGGSLRLSCAASGSIFGVYAMGWYRQAPGKESELVATITWRGGSTYYADSVKGRFTISRDNAKNTVYLQMNSLKPEDTSVYYCNARYKWGYYSRYDYWGQGTQVTVSS”, the “polyreactivity (PSR sort gate)” value is given as “high polyreactivity”.
For “QVQLVESGGGLVQAGGSLRLSCAASGSIFGVYTMGWYRQAPGKERELVAAITSAGSTYADSVKGRFTISRDKAKNTVYLQMNSLKPEDTAVYYCNAQSVLLSLRVELREPHEYWGQGTQVTVSS” the value was “low polyreactivity”; for “QVQLVESGGGLVQAGGSLRLSCAASGSIFGWNAMGWYRQAPGKERELVAAINWTGGTTYYADSVKGRFTISRDNEKNTVYLQMNSLKPEDTAVYYCAARLTYHVAGQMTRYYYWGQGTQVTVSS”, “low polyreactivity”; for “QVQLVESGGGLVQAGGSLRLSCAASGSIFGWYAMGWYRQAPGKERELVAAISGSGGSTYYADSVKGRFTISRDTAKNTVYLQMNSLKPEDTAVYYCNAYRRVGTSEYWGQGTQVTVSS”, “high polyreactivity”.
Consider “QVQLVESGGGLVQAGGSLRLSCAASGSIFGWYAMGWYRQAPGKERELVAAITFSSVSTYYADSVKGRFTISRDTAKNTVYLQMNSLKPEDTAVYYCAAVVYYTFDYWGQGTQVTVSS”, for which the “polyreactivity (PSR sort gate)” value is “low polyreactivity”.
Consider “QVQLVESGGGLVQAGGSLRLSCAASGSIFGYNAMGWYRQAPGKEREFVAAIRWSSGSTYYADSVKGRFTISRDNAKNTVYLQMNSLKPEDTAVYYCATRQTYLYWGQGTQVTVSS”, for which the “polyreactivity (PSR sort gate)” value was “high polyreactivity”.
For “QVQLVESGGGLVQAGGSLRLSCAASGSIFGYNAMGWYRQAPGKERELDAAISISDGSTYYADSVKGRFTISRDNAKNTVYFQMNSLKPEDTAVYYCAAPRDLSGYGNFGNGPFYYWGQGTQVTVSS” the value was “low polyreactivity”; for “QVQLVESGGGLVQAGGSLRLSCAASGSIFGYNAMGWYRQAPGKERELVAAIRISTDNTYYADSVKGRFTISRDNAKNTVYLQMNSLKPEDTAVYYCAADEYWWGYYYWGQGSQVTVSS”, “high polyreactivity”.
Turning to “QVQLVESGGGLVQAGGSLRLSCAASGSIFGYNAMGWYRQAPGKERELVAAISGGGGTYYADSVKGRFTISRDNAKNTVYLQMNSLKPEDTAVYYCATDRGHKWLFYGTYYRYEYWGQGTQVTVSS”, the “polyreactivity (PSR sort gate)” value was “low polyreactivity”.
As to “QVQLVESGGGLVQAGGSLRLSCAASGSIFGYNAMGWYRQAPGKERELVAAISGGGGTYYADSVKGRFTISRDNAKNTVYLQMNSLKPEDTAVYYCATDRVHKWLFYGTYYRYEYWGQGTHVTVSS”, the “polyreactivity (PSR sort gate)” value is given as “low polyreactivity”.
For “QVQLVESGGGLVQAGGSLRLSCAASGSIFGYNAMGWYRQAPGKERELVAAISYSGGRTYYADSVKGRFTISRDNAKNTVYLQMNSLKPEDTAVYYCAKYKVGYVPSGYRYDSWGQGTQVTVSS” the value was “high polyreactivity”.
For “QVQLVESGGGLVQAGGSLRLSCAASGSIFGYNAMGWYRQAPGKERELVAAITSIGGNTYADSVKGRFTISRDNAKNTVYLQMNSLKPEDTAVYYCAAERNTDPIQVVYEFDYWGQGTQVTVSS” the value was “low polyreactivity”.
For “QVQLVESGGGLVQAGGSLRLSCAASGSIFGYNAMGWYRQARGKERELVAAITSSGGSTYYADSVKGRFTISRDNSKNTVYLQMKSLKPEDTAVYYCNARDWYIVWYDYWGQGTQVTVSS” the value was “low polyreactivity”; for “QVQLVESGGGLVQAGGSLRLSCAASGSIFGYYAMGWYRQAPGKEREFVAAITSRVGRTHYADSVKGRFTISRDNAKNTVYLQMNSLKPEDTAVYYCAAEVRQYYRRGYYWGQGTQVTVSS”, “high polyreactivity”.
On to “QVQLVESGGGLVQAGGSLRLSCAASGSIFGYYAMGWYRQAPGKERELVAAINRDGGSTYYADSVKGRFTISRDNAKNTVYLQMNSLKPEDTAVYYCAAVVRRPGPGRMDYWGQGTQVTVSS”, for which the “polyreactivity (PSR sort gate)” value is “low polyreactivity”.
